Experimental data as given in the supplement of paper PMC7877785.
± gives the uncertainty stated by the source.

Assay: self-splicing fitness, log relative to wild type (ln ratio); higher = more splicing; Tetrahymena group I intron in knt gene, E. coli kanamycin selection, DiMSum; sequences stand for … in CUCUCU…GGAGGGAAAAGUUAUCAGGCAUGCACCUGGUAGCUAGUCUUUAAACCAAUAGAUUGCAUCGGUUUAAAAGGCAAGACCGUCAAAUUGCGGGAAAGGGGUCAACAGCCGUUCAGUACCAAGUCUCAGGGGAAACUUUGAGAUGGCCUUGCAAAGGGUAUGGUAAUAAGCUGACGGACAUGGUCCUAACCACGCAGCCAAGUCCUAAGUCAACAGAUCUUCUGUUGAUAUGGAUGCAGUUCACAGACUAAAUGUCGGUCGGGGAAGAUGUAUUCUUCUCAUAAGAUAUAGUCGGACCUCUCCUUAAUGGGAGCUAGCGGAUGAAGUGAUGCAACACUGGAGCCGCUGGGAACUAAUUUGUAUGCGAAAGUAUAUUGAUUAGUUUUGGAGUACUCGUGGUCG
Method in brief: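 Colonies from six replicate transformations of E. coli BL21(DE3) were pooled and amplicon-sequenced on an Illumina HiSeq 2500. The library placed an intron with all eight P1ex-region nucleotides randomised inside the knt kanamycin-resistance gene on pET-22b(+), and cells grew overnight at 37°C or 30°C on LB agar with or without 25 μg/mL kanamycin (plus 100 μg/mL carbenicillin, 50 μM IPTG, 0.2% rhamnose). Fitness is the DiMSum error-weighted combination of wild-type-normalised replicate fold changes, kanamycin versus none.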

| Sequence | self-splicing fitness (ln) (30 °C) | self-splicing fitness (ln) (37 °C) |
| --- | --- | --- |
| UUCGAGCAAUAUUACGUGUU | -4.05 ± 0.25 | -1.72 ± 0.18 |
| UUCGAGCAAUAUUACGUUAC | -3.5 ± 0.48 |  |
| UUCGAGCAAUAUUACGUUCU | -1.47 ± 0.15 | -0.345 ± 0.16 |
| UUCGAGCAAUAUUACGUUUG | -2.94 ± 0.14 | -2.99 ± 0.2 |
| UUCUAGCAAUAUUACGAGGA | -2.56 ± 0.25 | -1.4 ± 0.25 |
| UUCUAGCAAUAUUACGAUCA | -1.69 ± 0.23 | -0.172 ± 0.18 |
| UUCUAGCAAUAUUACGCCUU | -3.43 ± 0.21 | -2.57 ± 0.15 |
| UUCUAGCAAUAUUACGCGCG | -2.24 ± 0.32 | -1.05 ± 0.18 |
| UUCUAGCAAUAUUACGCUCA | -0.563 ± 0.15 | -0.208 ± 0.19 |
| UUCUAGCAAUAUUACGCUGA | -1.04 ± 0.31 | -0.752 ± 0.25 |
| UUCUAGCAAUAUUACGCUUC | -2.8 ± 0.32 | -1.96 ± 0.22 |
| UUCUAGCAAUAUUACGGACC | -1.51 ± 0.3 |  |
| UUCUAGCAAUAUUACGGCCG | -1.96 ± 0.14 | -1.56 ± 0.16 |
| UUCUAGCAAUAUUACGGCGU | -1.72 ± 0.13 | -1.2 ± 0.14 |
| UUCUAGCAAUAUUACGGGGC | -3.22 ± 0.32 | -2.02 ± 0.26 |
| UUCUAGCAAUAUUACGGUAC | -4.34 ± 0.36 | -2.76 ± 0.3 |
| UUCUAGCAAUAUUACGGUAG | -2.29 ± 0.23 | -3.15 ± 0.37 |
| UUCUAGCAAUAUUACGUCGA | -1.02 ± 0.13 | -0.474 ± 0.15 |
| UUCUAGCAAUAUUACGUCGU | -3.47 ± 0.26 | -2.19 ± 0.17 |
| UUCUAGCAAUAUUACGUGUG | -0.91 ± 0.06 | -0.542 ± 0.082 |
| UUCUAGCAAUAUUACGUUCU | -3.79 ± 0.46 | -1.26 ± 0.18 |
| UUCUAGCAAUAUUACGUUGA | -3.03 ± 0.22 | -1.47 ± 0.18 |
| UUGAAGCAAUAUUACGACGG | 0.0862 ± 0.13 | 0.756 ± 0.17 |
| UUGAAGCAAUAUUACGAGAU | -3.15 ± 0.18 | -2.87 ± 0.23 |
| UUGAAGCAAUAUUACGCAAU | -2.4 ± 0.21 | -2.02 ± 0.16 |

| Sequence | self-splicing fitness (ln) (30 °C) | self-splicing fitness (ln) (37 °C) |
| --- | --- | --- |
| UUGAAGCAAUAUUACGCCUG | 0.189 ± 0.11 | 0.0665 ± 0.12 |
| UUGAAGCAAUAUUACGCCUU | -2.96 ± 0.13 | -1.53 ± 0.14 |
| UUGAAGCAAUAUUACGCGAC | -2.19 ± 0.18 | -1.51 ± 0.29 |
| UUGAAGCAAUAUUACGCGAG | -0.254 ± 0.086 | 0.721 ± 0.12 |
| UUGAAGCAAUAUUACGCGCU | -1.72 ± 0.093 | -1 ± 0.13 |
| UUGAAGCAAUAUUACGCGGC | -1.63 ± 0.13 | -0.671 ± 0.19 |
| UUGAAGCAAUAUUACGCGUG | -0.176 ± 0.07 | -0.123 ± 0.099 |
| UUGAAGCAAUAUUACGGAAG | -1.12 ± 0.14 | -0.383 ± 0.2 |
| UUGAAGCAAUAUUACGGAUC | -0.951 ± 0.15 | -0.501 ± 0.18 |
| UUGAAGCAAUAUUACGGCCC | -3.04 ± 0.4 | -0.425 ± 0.2 |
| UUGAAGCAAUAUUACGGGAA | -0.195 ± 0.11 | -0.634 ± 0.15 |
| UUGAAGCAAUAUUACGGGCC |  | -2.14 ± 0.42 |
| UUGAAGCAAUAUUACGGUCG | 0.0283 ± 0.088 | 0.283 ± 0.1 |
| UUGAAGCAAUAUUACGGUGA | -0.275 ± 0.08 | -0.469 ± 0.09 |
| UUGAAGCAAUAUUACGGUUG | -0.894 ± 0.053 | -0.569 ± 0.07 |
| UUGAAGCAAUAUUACGUUCU | 0.25 ± 0.084 | -0.378 ± 0.1 |
| UUGAAGCAAUAUUACGUUGU | -2.87 ± 0.11 | -2.24 ± 0.16 |
| UUGCAGCAAUAUUACGACGU | -3.09 ± 0.29 | -1.11 ± 0.14 |
| UUGCAGCAAUAUUACGACUA | 0.37 ± 0.1 | 0.519 ± 0.12 |
| UUGCAGCAAUAUUACGACUU | -0.403 ± 0.1 | -0.588 ± 0.08 |
| UUGCAGCAAUAUUACGAGAU | -3.6 ± 0.34 | -2.64 ± 0.36 |
| UUGCAGCAAUAUUACGAUCU | -2.34 ± 0.22 | -1.78 ± 0.21 |
| UUGCAGCAAUAUUACGCAGA | -2.12 ± 0.11 | -1.95 ± 0.096 |
| UUGCAGCAAUAUUACGCAGU |  | -2.71 ± 0.39 |
